B1: SPOPL (parent)
chain: YTGRAPNLDKMADNLLAAADKYAL
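Further: lentivirally expressed fusions sorted by FACS into six bins by GFP to DsRed ratio, PSI derived from sequencing read proportions per bin multiplied by bin number.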

This data set covers variants of B1. As to the kind of experiment: protein stability index of a GFP-peptide fusion (GPS, HEK-293T) (PSI 1-6); higher = more stable. Conditions: c terminus: a fixed tail appended.
As for YTQRAPNLDKMADNLLAAADKYAL [G3Q], the protein stability index turned out to be 2.7.
Regarding YTVRAPNLDKMADNLLAAADKYAL [G3V], the protein stability index worked out at 2.62.
As for YTSRAPNLDKMADNLLAAADKYAL [G3S], the protein stability index turned out to be 2.1.
Take YTIRAPNLDKMADNLLAAADKYAL [G3I]: the protein stability index came out at 1.86.
In the case of YTPRAPNLDKMADNLLAAADKYAL [G3P], the protein stability index worked out at 2.14.
YTCRAPNLDKMADNLLAAADKYAL [G3C]: the protein stability index came to 1.64.
The value for YTYRAPNLDKMADNLLAAADKYAL [G3Y] was 2.82.
Regarding YTKRAPNLDKMADNLLAAADKYAL [G3K], the protein stability index was determined as 2.18.
YTHRAPNLDKMADNLLAAADKYAL [G3H]: the protein stability index amounted to 2.5.
With YTRRAPNLDKMADNLLAAADKYAL [G3R], the protein stability index came out at 2.29.
Take YTDRAPNLDKMADNLLAAADKYAL [G3D]: the protein stability index turned out to be 3.99.
Consider YTERAPNLDKMADNLLAAADKYAL [G3E], for which the protein stability index worked out at 2.94.
The value for YTARAPNLDKMADNLLAAADKYAL [G3A] was 2.17.
Take YTTRAPNLDKMADNLLAAADKYAL [G3T]: the protein stability index came out at 1.94.
Regarding YTMRAPNLDKMADNLLAAADKYAL [G3M], the protein stability index was found to be 2.68.
For the variant YTNRAPNLDKMADNLLAAADKYAL [G3N], the protein stability index is 2.83.
Regarding YTLRAPNLDKMADNLLAAADKYAL [G3L], the protein stability index came out at 2.11.
YTFRAPNLDKMADNLLAAADKYAL [G3F]: the protein stability index is 1.93.
The value for YTWRAPNLDKMADNLLAAADKYAL [G3W] was 2.88.
Turning to YTGRAPDLDKMADNLLAAADKYAL [N7D], the protein stability index amounted to 2.34.
In the case of YTGRAPTLDKMADNLLAAADKYAL [N7T] it was 2.06.
In the case of YTGRAPSLDKMADNLLAAADKYAL [N7S] it was 1.65; in that of YTGRAPHLDKMADNLLAAADKYAL [N7H], 1.68; in that of YTGRAPELDKMADNLLAAADKYAL [N7E], 1.99.
Turning to YTGRAPWLDKMADNLLAAADKYAL [N7W], the protein stability index is 1.84.
Regarding YTGRAPALDKMADNLLAAADKYAL [N7A], the protein stability index was determined as 1.98.
The value for YTGRAPKLDKMADNLLAAADKYAL [N7K] was 1.68; that for YTGRAPCLDKMADNLLAAADKYAL [N7C] was 1.86.
The value for YTGRAPFLDKMADNLLAAADKYAL [N7F] was 3.09; that for YTGRAPILDKMADNLLAAADKYAL [N7I] was 1.81.
The value for YTGRAPRLDKMADNLLAAADKYAL [N7R] was 1.48; that for YTGRAPQLDKMADNLLAAADKYAL [N7Q] was 2.39.
For the variant YTGRAPYLDKMADNLLAAADKYAL [N7Y], the protein stability index stood at 1.27.
In the case of YTGRAPVLDKMADNLLAAADKYAL [N7V] it was 1.7.
In the case of YTGRAPGLDKMADNLLAAADKYAL [N7G], the protein stability index is 1.89.
The value for YTGRRPNLDKMADNLLAAADKYAL [A5R] was 1.74; that for YTGRYPNLDKMADNLLAAADKYAL [A5Y] was 1.41.
The value for YTGRFPNLDKMADNLLAAADKYAL [A5F] was 2.31; that for YTGRHPNLDKMADNLLAAADKYAL [A5H] was 1.47.
In the case of YTGRGPNLDKMADNLLAAADKYAL [A5G] it was 1.93; in that of YTGRMPNLDKMADNLLAAADKYAL [A5M], 1.51; in that of YTGREPNLDKMADNLLAAADKYAL [A5E], 3.58.
Consider YTGRQPNLDKMADNLLAAADKYAL [A5Q], for which the protein stability index turned out to be 2.48.
Take YTGRVPNLDKMADNLLAAADKYAL [A5V]: the protein stability index came to 1.78.
Take YTGRSPNLDKMADNLLAAADKYAL [A5S]: the protein stability index was 2.33.
YTGRKPNLDKMADNLLAAADKYAL [A5K]: the protein stability index was 2.01.
In the case of YTGRPPNLDKMADNLLAAADKYAL [A5P] it was 2; in that of YTGRLPNLDKMADNLLAAADKYAL [A5L], 1.77.
The value for YTGRWPNLDKMADNLLAAADKYAL [A5W] was 4.42; that for YTGRCPNLDKMADNLLAAADKYAL [A5C] was 1.87.
Regarding YTGRTPNLDKMADNLLAAADKYAL [A5T], the protein stability index turned out to be 2.42.
In the case of YTGRIPNLDKMADNLLAAADKYAL [A5I] it was 1.58; in that of YTGRNPNLDKMADNLLAAADKYAL [A5N], 3.
Regarding YTGRDPNLDKMADNLLAAADKYAL [A5D], the protein stability index is 3.19.
The value for YDGRAPNLDKMADNLLAAADKYAL [T2D] was 3.75.
In the case of YWGRAPNLDKMADNLLAAADKYAL [T2W] it was 2.01; in that of YIGRAPNLDKMADNLLAAADKYAL [T2I], 1.98; in that of YEGRAPNLDKMADNLLAAADKYAL [T2E], 3.81.
With YKGRAPNLDKMADNLLAAADKYAL [T2K], the protein stability index is 2.49.
The value for YMGRAPNLDKMADNLLAAADKYAL [T2M] was 2.24; that for YNGRAPNLDKMADNLLAAADKYAL [T2N] was 2.93.
The value for YHGRAPNLDKMADNLLAAADKYAL [T2H] was 2.4; that for YRGRAPNLDKMADNLLAAADKYAL [T2R] was 2.43; that for YQGRAPNLDKMADNLLAAADKYAL [T2Q] was 2.29.
The value for YVGRAPNLDKMADNLLAAADKYAL [T2V] was 2.97; that for YYGRAPNLDKMADNLLAAADKYAL [T2Y] was 2.15.
With YGGRAPNLDKMADNLLAAADKYAL [T2G], the protein stability index was 2.79.
With YSGRAPNLDKMADNLLAAADKYAL [T2S], the protein stability index is 2.75.
For YAGRAPNLDKMADNLLAAADKYAL [T2A], the protein stability index came out at 1.32.
Turning to YFGRAPNLDKMADNLLAAADKYAL [T2F], the protein stability index was 2.47.
The value for YLGRAPNLDKMADNLLAAADKYAL [T2L] was 2.76; that for YPGRAPNLDKMADNLLAAADKYAL [T2P] was 2.75.
For KTGRAPNLDKMADNLLAAADKYAL [Y1K], the protein stability index came out at 3.61.
Consider MTGRAPNLDKMADNLLAAADKYAL [Y1M], for which the protein stability index is 3.06.
In the case of VTGRAPNLDKMADNLLAAADKYAL [Y1V] it was 1.76; in that of TTGRAPNLDKMADNLLAAADKYAL [Y1T], 3.37.
On to LTGRAPNLDKMADNLLAAADKYAL [Y1L], for which the protein stability index is 2.63.
Take DTGRAPNLDKMADNLLAAADKYAL [Y1D]: the protein stability index was 4.63.
On to ITGRAPNLDKMADNLLAAADKYAL [Y1I], for which the protein stability index was 2.16.
In the case of HTGRAPNLDKMADNLLAAADKYAL [Y1H] it was 3.8.
The value for ETGRAPNLDKMADNLLAAADKYAL [Y1E] was 4.07; that for CTGRAPNLDKMADNLLAAADKYAL [Y1C] was 3.08.
In the case of QTGRAPNLDKMADNLLAAADKYAL [Y1Q] it was 4.13.
Consider ATGRAPNLDKMADNLLAAADKYAL [Y1A], for which the protein stability index stood at 2.15.
In the case of PTGRAPNLDKMADNLLAAADKYAL [Y1P] it was 3.65; in that of NTGRAPNLDKMADNLLAAADKYAL [Y1N], 3.81.
Consider GTGRAPNLDKMADNLLAAADKYAL [Y1G], for which the protein stability index came out at 4.11.
In the case of WTGRAPNLDKMADNLLAAADKYAL [Y1W], the protein stability index was 2.94.
In the case of YTGRAANLDKMADNLLAAADKYAL [P6A] it was 1.88.
Take YTGRADNLDKMADNLLAAADKYAL [P6D]: the protein stability index was found to be 2.31.
Regarding YTGRAFNLDKMADNLLAAADKYAL [P6F], the protein stability index turned out to be 2.09.
Regarding YTGRAQNLDKMADNLLAAADKYAL [P6Q], the protein stability index was 2.19.
Turning to YTGRAHNLDKMADNLLAAADKYAL [P6H], the protein stability index came to 1.09.
Consider YTGRAGNLDKMADNLLAAADKYAL [P6G], for which the protein stability index turned out to be 1.68.

(Values after the supplement of paper PMC10567573.)
